± gives the standard deviation of the averaged measurements.
The sequences below were run on ATP (assay: switch fluorescence ratio, 500 uM ATP over buffer (Cy3 cluster intensity, sum of 5 cycles each) (fold (ratio)); higher = stronger signal-on switching upon ATP binding; sequences stand for … in TCGTCGGCAGCGTCAGATGTGTATAAGAGACAGTTTTTTTTTTTTTTTTTTTTTTTTT…TC). Conditions: aptamer strand: ATP DNA aptamer (quencher-CACCTGGGGGAGTATTGCGGAGGAAGG + anchor), 100 nM annealed; ATP concentration: 500 uM.
Procedure, shortened: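 For every switch-domain sequence, the fluorescence ratio is the mean of per-cluster values, each being summed target-cycle Cy3 intensity over summed buffer-cycle Cy3 intensity. Clusters outside 100-1000 RFU were excluded. On a modified Illumina MiSeq flow-cell, the Cy3-labelled switching-strand clusters were annealed to 100 nM quencher-labelled ATP aptamer, imaged in selection buffer and then after 15 min with 500 uM ATP at 22 °C. Five such cycles were run, with NaOH stripping and re-annealing between them.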
TAATAATGGG gave a switch fluorescence ratio of 1.02 ± 0.042.
ATTGTCGACT was tested, and the switch fluorescence ratio was 0.9681 ± 0.0045.
Sequence AGGGGCTGGT has a switch fluorescence ratio of 0.997 ± 0.026.
TTAGGTTTTG gave a switch fluorescence ratio of 1.02 ± 0.061.
Sequence CGCTTATCAT has a switch fluorescence ratio of 0.98 ± 0.03.
GCGATTAAG gave a switch fluorescence ratio of 0.981 ± 0.017.
Work on GTGCAAGGTA yielded a switch fluorescence ratio of 1 ± 0.014.
Work on GAAAGTTTTG yielded a switch fluorescence ratio of 1.01 ± 0.059.
TTTGGGATGG was tested, and the switch fluorescence ratio was 0.983 ± 0.046.
In the case of TAAACGGGGA, the switch fluorescence ratio is reported as 0.986 ± 0.057.
With CTGGCATGGA the switch fluorescence ratio was 1.01 ± 0.021.
With GAAGGGGGTG the switch fluorescence ratio was 1.02 ± 0.039.
With AAGGCCGCGG the switch fluorescence ratio was 0.997 ± 0.05.
CTTCGTGATG showed a switch fluorescence ratio of 1.1044 ± 0.00079.
TCAGTGGGGC showed a switch fluorescence ratio of 0.9987 ± 0.0093.
GAGTTTGACC gave a switch fluorescence ratio of 0.965 ± 0.03.
Sequence CTGCGGGTTA has a switch fluorescence ratio of 1.01 ± 0.015.
Work on GGTGCTGCTA yielded a switch fluorescence ratio of 0.984 ± 0.019.
TCATTAGAGG gave a switch fluorescence ratio of 0.9942 ± 0.0067.
Work on ATGCTCTTAT yielded a switch fluorescence ratio of 1 ± 0.012.
Sequence AGTGTCCGAT has a switch fluorescence ratio of 0.9895 ± 0.0053.
In the case of GTCGAATTAT, the switch fluorescence ratio is reported as 0.999 ± 0.019.
Work on GAATCAGGG yielded a switch fluorescence ratio of 0.972 ± 0.034.
TTTGCAGCC gave a switch fluorescence ratio of 1.05 ± 0.066.
Work on GTGGGATTTG yielded a switch fluorescence ratio of 0.9697 ± 0.0069.
With CAAAAAAAAG the switch fluorescence ratio was 1.03 ± 0.023.
TTTATAATCA showed a switch fluorescence ratio of 0.967 ± 0.011.
CAGAGGTTCC showed a switch fluorescence ratio of 1.05 ± 0.042.
TGGAGCGCCG gave a switch fluorescence ratio of 1.01 ± 0.028.
TATTTGTTCT showed a switch fluorescence ratio of 1 ± 0.024.
GCCCTCCTGC was tested, and the switch fluorescence ratio was 1.16 ± 0.078.
Work on AATTAAATA yielded a switch fluorescence ratio of 0.979 ± 0.037.
GTTCATTGTT gave a switch fluorescence ratio of 0.941 ± 0.017.
CGATGGGGTA was tested, and the switch fluorescence ratio was 1.01 ± 0.044.
For AGGAAGGTCG, the switch fluorescence ratio was 0.969 ± 0.013.
Work on GGGGAGAGAG yielded a switch fluorescence ratio of 0.9747 ± 0.0073.
TCGTTTAGCA showed a switch fluorescence ratio of 1.07 ± 0.029.
TTATGGGCGA gave a switch fluorescence ratio of 1 ± 0.046.
TAGCAATTAG gave a switch fluorescence ratio of 2.45 ± 0.031.
GAAAATGAAG was tested, and the switch fluorescence ratio was 1.01 ± 0.031.
With GGGGTTTCGG the switch fluorescence ratio was 1.02 ± 0.087.
TCAATAGGTT showed a switch fluorescence ratio of 1.01 ± 0.024.
In the case of AAGGGCGGGT, the switch fluorescence ratio is reported as 1.03 ± 0.014.
For AAGTTTTAAA, the switch fluorescence ratio was 0.968 ± 0.013.
Work on AATAGTGTCC yielded a switch fluorescence ratio of 1.01 ± 0.032.
Sequence ACAGCTTCTA has a switch fluorescence ratio of 1.03 ± 0.021.
CCTGCAAACA showed a switch fluorescence ratio of 2.22 ± 0.17.
Work on GCGGTTTAAG yielded a switch fluorescence ratio of 1 ± 0.013.
GGGGGGTAAG was tested, and the switch fluorescence ratio was 1 ± 0.021.
Work on TAGGGAAATC yielded a switch fluorescence ratio of 0.983 ± 0.013.
In the case of ATGTGGTTAG, the switch fluorescence ratio is reported as 0.994 ± 0.03.
With TTGGTACGGC the switch fluorescence ratio was 0.99 ± 0.037.
With CGTTGGAAGA the switch fluorescence ratio was 1.02 ± 0.015.
For AGTTACTGGG, the switch fluorescence ratio was 1.06 ± 0.046.
Sequence CAGAGGGCGG has a switch fluorescence ratio of 0.981 ± 0.047.
In the case of TTTCGTGGTT, the switch fluorescence ratio is reported as 0.937 ± 0.021.
Sequence ATATAAGGGT has a switch fluorescence ratio of 1.02 ± 0.015.
In the case of AAAAGGAGGA, the switch fluorescence ratio is reported as 1.02 ± 0.043.
With TATAAGTAGG the switch fluorescence ratio was 0.968 ± 0.028.
With GCTTTTTGCG the switch fluorescence ratio was 1.01 ± 0.03.
For TGGTCGTTTT, the switch fluorescence ratio was 1.01 ± 0.04.
GATGACACGA showed a switch fluorescence ratio of 1.033 ± 0.01.
In the case of TGATTCTAGC, the switch fluorescence ratio is reported as 0.972 ± 0.011.
With AAAAAGTGCC the switch fluorescence ratio was 1.07 ± 0.11.
Sequence TTCAGTTGAG has a switch fluorescence ratio of 1 ± 0.014.
CAAGCATCGC showed a switch fluorescence ratio of 0.94962 ± 2.2e-05.
In the case of AGGAGCTCTT, the switch fluorescence ratio is reported as 0.998 ± 0.0056.
With TACACCCTTC the switch fluorescence ratio was 1.183 ± 0.011.
GTTTTCGGCG gave a switch fluorescence ratio of 0.981 ± 0.035.
Work on TTTTAACCGG yielded a switch fluorescence ratio of 0.974 ± 0.025.
ACGCGCGGAA showed a switch fluorescence ratio of 1.008 ± 0.003.
TTTTTACAGT was tested, and the switch fluorescence ratio was 1.02 ± 0.048.
TTCGACGCTA was tested, and the switch fluorescence ratio was 1.33 ± 0.57.
With AGTTTTGGTC the switch fluorescence ratio was 1.002 ± 0.0056.
In the case of TAACACGAAT, the switch fluorescence ratio is reported as 1.01 ± 0.0083.
For ACGTGCAATT, the switch fluorescence ratio was 1.37 ± 0.21.
For AGAGGTTGCG, the switch fluorescence ratio was 0.955 ± 0.073.
For GAGGCAGACT, the switch fluorescence ratio was 1.23 ± 0.019.
With TTGAGGTATA the switch fluorescence ratio was 0.987 ± 0.025.
Work on TGCCGGGGGA yielded a switch fluorescence ratio of 1.01 ± 0.018.
For GGGGTAAAGC, the switch fluorescence ratio was 1 ± 0.018.
ATGGGGGATC gave a switch fluorescence ratio of 1.008 ± 0.0082.
TTCAGGGAGA showed a switch fluorescence ratio of 1.005 ± 0.008.
GAGATAGGGA was tested, and the switch fluorescence ratio was 1.01 ± 0.029.
Work on TAACTAATAA yielded a switch fluorescence ratio of 1.01 ± 0.018.
For GGGTGGGAAT, the switch fluorescence ratio was 1.01 ± 0.043.
TAAGAGGCGG showed a switch fluorescence ratio of 1.01 ± 0.052.
For ATGTTGGTAG, the switch fluorescence ratio was 0.985 ± 0.026.
With GTATTAGGTG the switch fluorescence ratio was 1.03 ± 0.048.
In the case of GGACGGGGGA, the switch fluorescence ratio is reported as 1.02 ± 0.054.
CCAATTTGCT was tested, and the switch fluorescence ratio was 1.02 ± 0.056.
Sequence CCGGTTTGGG has a switch fluorescence ratio of 0.988 ± 0.042.
GTTGGGGCGG gave a switch fluorescence ratio of 1.01 ± 0.057.
For GCGGAGAAAT, the switch fluorescence ratio was 1.4 ± 0.3.
Work on GGGAGAGGTG yielded a switch fluorescence ratio of 0.989 ± 0.027.
Sequence ATTAGAACGG has a switch fluorescence ratio of 1.01 ± 0.022.
ACAAGATACG gave a switch fluorescence ratio of 1.13 ± 0.013.
TGGGCTTGTT was tested, and the switch fluorescence ratio was 0.999 ± 0.036.
With TTCTTTTCTT the switch fluorescence ratio was 1.02 ± 0.047.
TTTGGGACCT was tested, and the switch fluorescence ratio was 1 ± 0.048.
For GTTGGGGCTC, the switch fluorescence ratio was 1.01 ± 0.04.
For TTTGTTCGGA, the switch fluorescence ratio was 0.9795 ± 0.0059.
In the case of ATCGCGTTGG, the switch fluorescence ratio is reported as 0.983 ± 0.027.
Work on ATTATGGTAT yielded a switch fluorescence ratio of 1.02 ± 0.04.
Work on CTGATGCGGG yielded a switch fluorescence ratio of 1.06 ± 0.062.
AACTTTAGTA showed a switch fluorescence ratio of 1 ± 0.016.
Work on ATCTGTTTTG yielded a switch fluorescence ratio of 1.02 ± 0.049.
For TCCTAATGGG, the switch fluorescence ratio was 0.985 ± 0.025.
For TTTTTGAT, the switch fluorescence ratio was 0.972 ± 0.022.
For AGACGGGGCC, the switch fluorescence ratio was 1.01 ± 0.018.
GGGTACAGTT was tested, and the switch fluorescence ratio was 1.01 ± 0.018.
CAAGGACATA was tested, and the switch fluorescence ratio was 1.07 ± 0.038.
TATCTATGTA showed a switch fluorescence ratio of 1.01 ± 0.02.
TTTTTGGCTA was tested, and the switch fluorescence ratio was 1 ± 0.021.
With GAGATCGGTG the switch fluorescence ratio was 0.96 ± 0.023.
Sequence GAGAGAGTGG has a switch fluorescence ratio of 0.976 ± 0.032.
In the case of AACATAGGTG, the switch fluorescence ratio is reported as 1.14 ± 0.056.
TCATGCAAAT gave a switch fluorescence ratio of 1.04 ± 0.031.
CGCTATTATT was tested, and the switch fluorescence ratio was 1.05 ± 0.04.
TTATTAGAGC showed a switch fluorescence ratio of 0.958 ± 0.085.
AATGGTGATG gave a switch fluorescence ratio of 0.9904 ± 0.0077.
For GTTGGGCGGA, the switch fluorescence ratio was 0.993 ± 0.029.
AGTCTAGAGA was tested, and the switch fluorescence ratio was 1.015 ± 0.0095.
ATTTGGTAGG showed a switch fluorescence ratio of 1 ± 0.012.
With AACGAAAAGT the switch fluorescence ratio was 0.996 ± 0.012.
TCTGGGTAGC was tested, and the switch fluorescence ratio was 1 ± 0.061.
Work on AGTAAGGGGC yielded a switch fluorescence ratio of 0.98 ± 0.019.
CCCGGGTCGC showed a switch fluorescence ratio of 1.05 ± 0.012.
Work on GGGTGGAAGT yielded a switch fluorescence ratio of 0.981 ± 0.023.
Sequence TCTAGGGGGG has a switch fluorescence ratio of 1.02 ± 0.058.
In the case of TAATTCAATG, the switch fluorescence ratio is reported as 0.997 ± 0.066.
For ATTTTATTAC, the switch fluorescence ratio was 1.04 ± 0.028.
In the case of CCAAAGAGGG, the switch fluorescence ratio is reported as 0.993 ± 0.02.
Work on ATGGTTGGTC yielded a switch fluorescence ratio of 0.97 ± 0.023.
GGAATTACTG gave a switch fluorescence ratio of 1.04 ± 0.033.
ATTGTTGGTG showed a switch fluorescence ratio of 0.986 ± 0.024.
AAGTTGGGT was tested, and the switch fluorescence ratio was 0.95 ± 0.017.
Work on CAGAAGCCTG yielded a switch fluorescence ratio of 1.014 ± 0.0028.
With CGGGAGAGTA the switch fluorescence ratio was 1.54 ± 0.82.
With AATCAAGTCT the switch fluorescence ratio was 0.999 ± 0.011.
GGGGTACAGT gave a switch fluorescence ratio of 0.9946 ± 0.0091.
TTCCCGGACT gave a switch fluorescence ratio of 1.02 ± 0.024.
In the case of ATGGTTGTGC, the switch fluorescence ratio is reported as 0.991 ± 0.026.
Sequence GTTGGATTGG has a switch fluorescence ratio of 0.996 ± 0.019.
TTAAAAGTTG gave a switch fluorescence ratio of 1.051 ± 0.0097.
For TAGGGGTGAG, the switch fluorescence ratio was 1.04 ± 0.021.
ATGGGGCTGT showed a switch fluorescence ratio of 0.979 ± 0.034.
Work on ACAGCATTTT yielded a switch fluorescence ratio of 1.03 ± 0.0072.
TTTATAAAGG was tested, and the switch fluorescence ratio was 1.01 ± 0.034.
With AGACGCAGGG the switch fluorescence ratio was 1.034 ± 0.0053.
With TAAGTTCCTG the switch fluorescence ratio was 1 ± 0.026.
For AAGAGTGGTG, the switch fluorescence ratio was 0.988 ± 0.015.
For AAAGCAGTAT, the switch fluorescence ratio was 1.14 ± 0.068.
In the case of GAGGAGAACG, the switch fluorescence ratio is reported as 0.949 ± 0.049.
With GGTTTTTTAT the switch fluorescence ratio was 1.02 ± 0.019.
In the case of GTATAGGGAC, the switch fluorescence ratio is reported as 1.03 ± 0.03.
Sequence TTTGTTGAGT has a switch fluorescence ratio of 1 ± 0.026.

— the supplement of paper PMC10126150
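Further: ATP exposure 15 min at 22 °C before imaging.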
